Data: PMC6379431 (Nature Communications, 2019)
Where a chain is given by its changes, count along the chain named. Names may count otherwise.

Molecular target: the molecule itself
Test: crystal structure

B1: mCldn3cryst P134G (domain or fragment)
chain: MSMGLEITGTSLAVLGWLCTIVCCALPMWRVSAFIGSSIITAQITWEGLWMNCVVQSTGQMQCKMYDSLLALPQDLQAARALIVVSILLAAFGLLVALVGAQATNAVQDETAKAKITIVAGVLFLLAALLTLVGVSWSANTIIRDFYNPLVPEAQKREMGAGLYVGWAAAALQLLGGALLAA
notes: also called P134G mutant; source: Sf9 insect cells (baculovirus), purified (as mCldn3cryst)
- binding result: binds

B2: mCldn3cryst P134A (domain or fragment)
chain: B1 chain with G134A
notes: also called P134A mutant; source: Sf9 insect cells (baculovirus), purified (as mCldn3cryst)
- binding result: binds
